From patent publication USRE47123 (Sanofi, dated 2018) come the findings set out here.

Numbering of substitutions follows the chain as printed.

The target in assay [1] is T1, human EphA2 receptor (human, UniProt P29317 24-976).
T1 construct: whole, on cells; also called hu-EphA2
Description: FACS titration on cells with human EphA2, same protocol (apparent KD).

In assay [2] the target is T1, human EphA2 receptor. The assay is described as follows: FACS titration on cells with human EphA2, non-linear regression for one-site binding (apparent KD).
The target in the next assay is T2, murine EphA2 receptor (murine, UniProt Q03145 26-977).
T2 construct: whole, on cells; also called mu-EphA2
T2 sequence (Q03145 26-977): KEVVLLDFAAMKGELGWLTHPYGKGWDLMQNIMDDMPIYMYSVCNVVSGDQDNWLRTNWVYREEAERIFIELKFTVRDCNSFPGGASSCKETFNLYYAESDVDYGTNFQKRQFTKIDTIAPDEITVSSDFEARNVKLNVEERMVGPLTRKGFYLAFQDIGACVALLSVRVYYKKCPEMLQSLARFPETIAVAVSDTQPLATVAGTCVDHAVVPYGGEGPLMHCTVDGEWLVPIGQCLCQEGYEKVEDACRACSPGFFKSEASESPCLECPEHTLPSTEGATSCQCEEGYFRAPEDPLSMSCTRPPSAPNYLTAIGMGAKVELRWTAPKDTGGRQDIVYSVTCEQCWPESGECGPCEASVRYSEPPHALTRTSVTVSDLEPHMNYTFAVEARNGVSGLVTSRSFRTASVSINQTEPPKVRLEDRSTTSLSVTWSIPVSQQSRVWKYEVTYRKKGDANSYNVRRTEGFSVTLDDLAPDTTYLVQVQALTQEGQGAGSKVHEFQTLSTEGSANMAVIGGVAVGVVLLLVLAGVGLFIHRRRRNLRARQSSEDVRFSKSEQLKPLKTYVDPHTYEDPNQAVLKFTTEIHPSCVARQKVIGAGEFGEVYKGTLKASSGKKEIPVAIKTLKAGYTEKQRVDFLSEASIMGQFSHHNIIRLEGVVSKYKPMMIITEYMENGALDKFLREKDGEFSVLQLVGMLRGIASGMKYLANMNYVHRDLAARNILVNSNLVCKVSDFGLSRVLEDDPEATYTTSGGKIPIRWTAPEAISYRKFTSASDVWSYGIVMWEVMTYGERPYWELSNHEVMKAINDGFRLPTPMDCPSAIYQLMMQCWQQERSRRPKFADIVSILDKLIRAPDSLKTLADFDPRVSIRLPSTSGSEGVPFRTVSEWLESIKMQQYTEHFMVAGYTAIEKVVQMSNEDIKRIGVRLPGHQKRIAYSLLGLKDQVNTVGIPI
The assay is described as follows: FACS, cells over-expressing murine EphA2.

Assay [3] concerns the target T3, monkey EphA2 on VERO cells (monkey (Cercopithecus aethiops)).
T3 construct: whole, on cells
Description: FACS titration on monkey VERO cells, non-linear regression for one-site binding (apparent KD).

The target of assay [4] is T1, human EphA2 receptor. Description: FACS titration on HUVEC cells (apparent KD).
The target of assay [5] is T1, human EphA2 receptor. The assay is described as follows: FACS titration on HUVEC cells, non-linear regression for one-site binding (apparent KD).

T1 sequence (P29317 24-976): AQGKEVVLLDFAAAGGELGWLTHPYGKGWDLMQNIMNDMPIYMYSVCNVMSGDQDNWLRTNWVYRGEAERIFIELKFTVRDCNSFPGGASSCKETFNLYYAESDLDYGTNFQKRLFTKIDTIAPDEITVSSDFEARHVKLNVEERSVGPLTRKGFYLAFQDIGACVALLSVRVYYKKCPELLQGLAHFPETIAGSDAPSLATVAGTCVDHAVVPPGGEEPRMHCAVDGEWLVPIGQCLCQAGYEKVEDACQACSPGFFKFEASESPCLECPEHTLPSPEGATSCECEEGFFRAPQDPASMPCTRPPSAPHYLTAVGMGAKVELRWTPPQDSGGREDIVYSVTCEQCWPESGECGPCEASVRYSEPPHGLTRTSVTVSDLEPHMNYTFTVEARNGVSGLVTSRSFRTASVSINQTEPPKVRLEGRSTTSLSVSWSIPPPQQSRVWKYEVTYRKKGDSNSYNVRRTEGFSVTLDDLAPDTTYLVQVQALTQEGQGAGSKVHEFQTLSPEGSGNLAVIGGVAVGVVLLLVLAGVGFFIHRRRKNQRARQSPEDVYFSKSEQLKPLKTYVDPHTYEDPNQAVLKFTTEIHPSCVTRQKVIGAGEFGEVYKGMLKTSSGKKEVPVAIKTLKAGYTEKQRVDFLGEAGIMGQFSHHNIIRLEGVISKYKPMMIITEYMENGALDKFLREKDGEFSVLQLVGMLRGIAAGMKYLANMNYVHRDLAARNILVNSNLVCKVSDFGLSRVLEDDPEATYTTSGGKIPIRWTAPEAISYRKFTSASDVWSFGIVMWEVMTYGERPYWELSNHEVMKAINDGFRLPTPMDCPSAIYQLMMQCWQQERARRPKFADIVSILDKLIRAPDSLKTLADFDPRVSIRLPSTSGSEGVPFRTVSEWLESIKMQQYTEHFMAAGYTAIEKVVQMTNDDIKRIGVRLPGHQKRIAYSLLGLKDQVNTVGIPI

B1: murine anti-EphA2 monoclonal antibody EphA2-N2 (antibody, V domains shown)
VH: EVQLQQSGPELVKPGASVKISCKASGYTFTDYNMHWVKQSHGKSLEWIGFIYPYNGGTGYNQRFKNKATLTVDTSSSTAYMEVRSLTSEDSAVYFCARGYYYGRHFDYWGQGTTLTVSS
VL: QIVLTQSPALMSASPGEKVTMTCSASSSVSYMYWYQQKPRSSPKPWIYITSNLASGVPARFSGSGSGTSYSLTISSMEAEDAATYYCQQWSSNPPTFGGGTKLEIKR
notes: Murine monoclonal antibody from hybridoma PTA-8408
Consider B1, for which the Kd with human EphA2 receptor [1] is 0.05 nM.

B2: murine anti-EphA2 monoclonal antibody 53.2H11 (antibody, V domains shown)
VH: EVQLQQSGPELVKPGASVKISCKASGYSFTAYYMHWVKQSHVKSLEWIGLVNPYNGFSSYNQNFEDKASLTVDKFSSTAYMELHSLTSEDSAVYYCAREFYGYRYFDVWGAGTAVTVSS
VL: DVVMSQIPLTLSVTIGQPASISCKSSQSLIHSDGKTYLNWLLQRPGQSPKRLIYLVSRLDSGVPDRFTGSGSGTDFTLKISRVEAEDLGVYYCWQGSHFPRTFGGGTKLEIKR
notes: Purified murine monoclonal antibody from hybridoma PTA-7662; also called 53.2H11 antibody
As to B2, the Kd in the assay with human EphA2 receptor [2] amounted to 0.14 nM; in assay [3] it was 0.07 nM; in the assay with human EphA2 receptor [4], 0.06 nM. For the same molecule, the binding result in the assay with murine EphA2 receptor is “binds”.

B3: murine anti-EphA2 monoclonal antibody 37.3D7 (antibody, V domains shown)
VH: QVQLQQPGSELVRPGASVQLSCKASGYSFTSYWMHWVRQRPGQGLQWIGNIYPGTGNTNYDEKFMNKATLTVDTYSSTTYMQLSSLTSEDSAVYYCARWGLVRYFFAMDYWGQGTSVTVSS
VL: QIVLTQSPAIMSASLGERVTMTCTVSSSVNSSYLHWYQQKPGSSPKLWIYSTSNLPSGVPARFSGSGSGTSYSLTISTIESEDAATYYCHQYHRSPQFTFGSGTKLEIKR
notes: Purified murine monoclonal antibody from hybridoma PTA-7660; also called mu37.3D7; 37.3D7 antibody
With B3, the Kd in the assay with human EphA2 receptor [5] was found to be 0.3 nM; in assay [3] it was 0.15 nM. In the assay with murine EphA2 receptor, the binding result is “binds”.

B4: murine anti-EphA2 monoclonal antibody EphA2-N1 (antibody, V domains shown)
VH: EVQLQQSGPDLVKPGASVKISCKASGYRFTEYNMHWMKQSHGESLEWIGYIYPYNGDTGYRQKFKNMATLTADISSNTAYMELRSLTSDDSAVYFCARWGYGSGGGFTYWGQGTLVTVSA
VL: DIVLTQSPGSLAVSLGQRATISCRASESVDTYGNSFMHWYQQKAGQPPRLLIYRASNLESGIPARFSGSGSRTDFTLTINPVEADDVATYYCQQSNEDPLTFGAGTKLELKR
notes: Murine monoclonal antibody from hybridoma PTA-8407
With B4, the Kd with human EphA2 receptor [1] was 0.18 nM.

B5: murine anti-EphA2 monoclonal antibody 37.1F5 (antibody, V domains shown)
VH: EVQLQQSGPELVKPGASMKISCRASGYSFTGYTMNWVRQSHGKNLEWIGLINPHNGGSSYNLKFKGKATLTVDKSSSTAYMELLSLTSEDSAVYYCVRWGDYGSFAYWGQGTLVTVSA
VL: B4 VL with G9A, Y32F, N34Y, M37I, H38Y, A44P, L100P, A104G, L110I
notes: Purified murine monoclonal antibody from hybridoma PTA-7661; also called mu37.1F5; 37.1F5 antibody
As to B5, the Kd with human EphA2 receptor [2] was determined as 0.07 nM; in assay [3], 0.05 nM; with human EphA2 receptor [4], 0.01 nM.
